{"source": "paper PMC4625125", "test_system": "ScbR2", "experiment": "EMSA", "conditions": "'nearly 1 uM'; exact value in figure; not stated; modified EMSA as previously described (ref 23)", "data": [{"substance": "PkasO1", "values": [{"measurement": "Kd", "value": 1, "unit": "µM"}]}]}
